The subject of data set [1] is HeLa Kyoto. The experiment in a line: solubility in G1/S (NP-40 vs SDS abundance) (log2 ratio); higher = more soluble. The settings on record: cell cycle stage: G1/S.
For data set [2], the system named is HeLa Kyoto. The experiment in a line: melting temperature (median over replicates), in situ; higher = more thermally stable.
The subject of data set [3] is HeLa Kyoto. Put plainly: solubility change mitosis vs G1/S (difference of NP-40 vs SDS log2 ratios) (log2 ratio difference); higher = more soluble in mitosis.
Data set [4] relates to HeLa Kyoto. Put plainly: thermal stability score vs G1/S (z-score of summed log2 fold changes over temperatures); higher = more thermally stable than in G1/S.
Setting [5] is: cell cycle stage: early G1 (4.5 h after nocodazole release).
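Throughout, for melting temperature (median over replicates), in situ: HeLa Kyoto cells synchronized by double thymidine or nocodazole block, proteins quantified by TMT10plex mass spectrometry, three independent biological replicates.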
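Throughout, for solubility change mitosis vs G1/S (difference of NP-40 vs SDS log2 ratios): synchronized HeLa Kyoto cells (double thymidine block for G1/S, nocodazole release for mitosis), protein amounts in NP-40 versus SDS lysates quantified by mass spectrometry, three biological replicates.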
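Throughout, for solubility in G1/S (NP-40 vs SDS abundance): HeLa Kyoto cells arrested at G1/S by double thymidine block, proteins quantified by TMT10plex mass spectrometry in mild NP-40 versus SDS extracts, three biological replicates.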
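Throughout, for thermal stability score vs G1/S (z-score of summed log2 fold changes over temperatures): synchronized HeLa Kyoto cells, proteins quantified by TMT10plex mass spectrometry, three biological replicates, mitosis taken 0.5 h after nocodazole release, G1/S directly after double thymidine block.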

With “MEQWRQCGRWLIDCKVLPPNHRVVWPSAVVFDLAQALRDGVLLCQLLHNLSPGSIDLKDINFRPQMSQFLCLKNIRTFLKVCHDKFGLRNSELFDPFDLFDVRDFGKVISAVSRLSLHSIAQNKGIRPFPSEETTENDDDVYRSLEELADEHDLGEDIYDCVPCEDGGDDIYEDIIKVEVQQPMIRYMQKMGMTEDDKRNCCLLEIQETEAKYYRTLEDIEKNYMSPLRLVLSPADMAAVFINLEDLIKVHHSFLRAIDVSVMVGGSTLAKVFLDFKERLLIYGEYCSHMEHAQNTLNQLLASREDFRQKVEECTLKVQDGKFKLQDLLVVPMQRVLKYHLLLKELLSHSAERPERQQLKEALEAMQDLAMYINEVKRDKETLRKISEFQSSIENLQVKLEEFGRPKIDGELKVRSIVNHTKQDRYLFLFDKVVIVCKRKGYSYELKEIIELLFHKMTDDPMNNKDVKKSHGKMWSYGFYLIHLQGKQGFQFFCKTEDMKRKWMEQFEMAMSNIKPDKANANHHSFQMYTFDKTTNCKACKMFLRGTFYQGYMCTKCGVGAHKECLEVIPPCKFTSPADLDASGAGPGPKMVAMQNYHGNPAPPGKPVLTFQTGDVLELLRGDPESPWWEGRLVQTRKSGYFPSSSVKPCPVDGRPPISRPPSREIDYTAYPWFAGNMERQQTDNLLKSHASGTYLIRERPAEAERFAISIKFNDEVKHIKVVEKDNWIHITEAKKFDSLLELVEYYQCHSLKESFKQLDTTLKYPYKSRERSASRASSRSPASCASYNFSFLSPQGLSFASQGPSAPFWSVFTPRVIGTAVARYNFAARDMRELSLREGDVVRIYSRIGGDQGWWKGETNGRIGWFPSTYVEEEGIQ [VAV2]”, in the data set on HeLa Kyoto [1], the “solubility in G1/S (log2)” value was -0.0231. Besides, the results for the melting temperature with HeLa Kyoto [2] (cell cycle stage: G1/S) and in the data set on HeLa Kyoto [2] (cell cycle stage: mitosis) were 48.7 °C and 48.9 °C, respectively. Further, in the data set on HeLa Kyoto [3], the “solubility change mitosis (log2)” value was -0.269. In addition, the thermal stability score in the data set on HeLa Kyoto [4] (setting [5]) amounted to 0.0861; in the data set on HeLa Kyoto [4] (cell cycle stage: mitosis), 1.36.
With “MERAGATSRGGQAPGFLLRLHTEGRAEAARVQEQDLRQWGLTGIHLRSYQLEGVNWLAQRFHCQNGCILGDEMGLGKTCQTIALFIYLAGRLNDEGPFLILCPLSVLSNWKEEMQRFAPGLSCVTYAGDKEERACLQQDLKQESRFHVLLTTYEICLKDASFLKSFPWSVLVVDEAHRLKNQSSLLHKTLSEFSVVFSLLLTGTPIQNSLQELYSLLSFVEPDLFSKEEVGDFIQRYQDIEKESESASELHKLLQPFLLRRVKAEVATELPKKTEVVIYHGMSALQKKYYKAILMKDLDAFENETAKKVKLQNILSQLRKCVDHPYLFDGVEPEPFEVGDHLTEASGKLHLLDKLLAFLYSGGHRVLLFSQMTQMLDILQDYMDYRGYSYERVDGSVRGEERHLAIKNFGQQPIFVFLLSTRAGGVGMNLTAADTVIFVDSDFNPQNDLQAAARAHRIGQNKSVKVIRLIGRDTVEEIVYRKAASKLQLTNMIIEGGHFTLGAQKPAADADLQLSEILKFGLDKLLASEGSTMDEIDLESILGETKDGQWVSDALPAAEGGSRDQEEGKNHMYLFEGKDYSKEPSKEDRKSFEQLVNLQKTLLEKASQEGRSLRNKGSVLIPGLVEGSTKRKRVLSPEELEDRQKKRQEAAAKRRRLIEEKKRQKEEAEHKKKMAWWESNNYQSFCLPSEESEPEDLENGEESSAELDYQDPDATSLKYVSGDVTHPQAGAEDALIVHCVDDSGHWGRGGLFTALEKRSAEPRKIYELAGKMKDLSLGGVLLFPVDDKESRNKGQDLLALIVAQHRDRSNVLSGIKMAALEEGLKKIFLAAKKKKASVHLPRIGHATKGFNWYGTERLIRKHLAARGIPTYIYYFPRSKSAVLHSQSSSSSSRQLVP [CHD1L]”, the “solubility in G1/S (log2)” value in the data set on HeLa Kyoto [1] was -0.105. In addition, the melting temperature in the data set with HeLa Kyoto [2] (cell cycle stage: G1/S) was 46.9 °C; in the data set on HeLa Kyoto [2] (cell cycle stage: mitosis) it was 49 °C. The “solubility change mitosis (log2)” value in the data set on HeLa Kyoto [3] was -0.0342. Further, the thermal stability score with HeLa Kyoto [4] (setting [5]) came out at 0.274; in the data set with HeLa Kyoto [4] (cell cycle stage: mitosis), 0.334.
In the case of “MERASERRTASALFAGFRALGLFSNDIPHVVRFSALKRRFYVTTCVGKSFHTYDVQKLSLVAVSNSVPQDICCMAADGRLVFAAYGNVFSAFARNKEIVHTFKGHKAEIHFLQPFGDHIISVDTDGILIIWHIYSEEEYLQLTFDKSVFKISAILHPSTYLNKILLGSEQGSLQLWNVKSNKLLYTFPGWKVGVTALQQAPAVDVVAIGLMSGQVIIHNIKFNETLMKFRQDWGPITSISFRTDGHPVMAAGSPCGHIGLWDLEDKKLINQMRNAHSTAIAGLTFLHREPLLVTNGADNALRIWIFDGPTGEGRLLRFRMGHSAPLTNIRYYGQNGQQILSASQDGTLQSFSTVHEKFNKSLGHGLINKKRVKRKGLQNTMSVRLPPITKFAAEEARESDWDGIIACHQGKLSCSTWNYQKSTIGAYFLKPKELKKDDITATAVDITSCGNFAVIGLSSGTVDVYNMQSGIHRGSFGKDQAHKGSVRGVAVDGLNQLTVTTGSEGLLKFWNFKNKILIHSVSLSSSPNIMLLHRDSGILGLALDDFSISVLDIETRKIVREFSGHQGQINDMAFSPDGRWLISAAMDCSIRTWDLPSGCLIDCFLLDSAPLNVSMSPTGDFLATSHVDHLGIYLWSNISLYSVVSLRPLPADYVPSIVMLPGTCQTQDVEVSEETVEPSDELIEYDSPEQLNEQLVTLSLLPESRWKNLLNLDVIKKKNKPKEPPKVPKSAPFFIPTIPGLVPRYAAPEQNNDPQQSKVVNLGVLAQKSDFCLKLEEGLVNNKYDTALNLLKESGPSGIETELRSLSPDCGGSIEVMQSFLKMIGMMLDRKRDFELAQAYLALFLKLHLKMLPSEPVLLEEITNLSSQVEENWTHLQSLFNQSMCILNYLKSALL [WDR36]”, in the data set with HeLa Kyoto [1], the “solubility in G1/S (log2)” value is -1.46. Further, the melting temperature in the data set with HeLa Kyoto [2] (cell cycle stage: G1/S) came to 50.5 °C; in the data set on HeLa Kyoto [2] (cell cycle stage: mitosis), 50.8 °C. For the same sequence, the “solubility change mitosis (log2)” value with HeLa Kyoto [3] turned out to be 0.613. In addition, the thermal stability score stood at 0.383 in the data set with HeLa Kyoto [4] (setting [5]) and 0.754 in the data set on HeLa Kyoto [4] (cell cycle stage: mitosis).
In the case of “MERAVPLAVPLGQTEVFQALQRLHMTIFSQSVSPCGKFLAAGNNYGQIAIFSLSSALSSEAKEESKKPVVTFQAHDGPVYSMVSTDRHLLSAGDGEVKAWLWAEMLKKGCKELWRRQPPYRTSLEVPEINALLLVPKENSLILAGGDCQLHTMDLETGTFTRVLRGHTDYIHCLALRERSPEVLSGGEDGAVRLWDLRTAKEVQTIEVYKHEECSRPHNGRWIGCLATDSDWMVCGGGPALTLWHLRSSTPTTIFPIRAPQKHVTFYQDLILSAGQGRCVNQWQLSGELKAQVPGSSPGLLSLSLNQQPAAPECKVLTAAGNSCRVDVFTNLGYRAFSLSF [THOC6]”, in the data set with HeLa Kyoto [1], the “solubility in G1/S (log2)” value was -0.108. Further, the melting temperature in the data set on HeLa Kyoto [2] (cell cycle stage: G1/S) is 51.8 °C; in the data set on HeLa Kyoto [2] (cell cycle stage: mitosis), 51.2 °C. In the data set with HeLa Kyoto [3], the “solubility change mitosis (log2)” value came to 0.108. Further, the thermal stability score in the data set with HeLa Kyoto [4] (setting [5]) is -0.465; in the data set on HeLa Kyoto [4] (cell cycle stage: mitosis), -0.675.
On to “MERPPGLRPGAGGPWEMRERLGTGGFGNVCLYQHRELDLKIAIKSCRLELSTKNRERWCHEIQIMKKLNHANVVKACDVPEELNILIHDVPLLAMEYCSGGDLRKLLNKPENCCGLKESQILSLLSDIGSGIRYLHENKIIHRDLKPENIVLQDVGGKIIHKIIDLGYAKDVDQGSLCTSFVGTLQYLAPELFENKPYTATVDYWSFGTMVFECIAGYRPFLHHLQPFTWHEKIKKKDPKCIFACEEMSGEVRFSSHLPQPNSLCSLVVEPMENWLQLMLNWDPQQRGGPVDLTLKQPRCFVLMDHILNLKIVHILNMTSAKIISFLLPPDESLHSLQSRIERETGINTGSQELLSETGISLDPRKPASQCVLDGVRGCDSYMVYLFDKSKTVYEGPFASRSLSDCVNYIVQDSKIQLPIIQLRKVWAEAVHYVSGLKEDYSRLFQGQRAAMLSLLRYNANLTKMKNTLISASQQLKAKLEFFHKSIQLDLERYSEQMTYGISSEKMLKAWKEMEEKAIHYAEVGVIGYLEDQIMSLHAEIMELQKSPYGRRQGDLMESLEQRAIDLYKQLKHRPSDHSYSDSTEMVKIIVHTVQSQDRVLKELFGHLSKLLGCKQKIIDLLPKVEVALSNIKEADNTVMFMQGKRQKEIWHLLKIACTQSSARSLVGSSLEGAVTPQTSAWLPPTSAEHDHSLSCVVTPQDGETSAQMIEENLNCLGHLSTIIHEANEEQGNSMMNLDWSWLTE [CHUK]”, for which, in the data set with HeLa Kyoto [1], the “solubility in G1/S (log2)” value was found to be 0.0423. The melting temperature in the data set on HeLa Kyoto [2] (cell cycle stage: G1/S) was found to be 48.7 °C; with HeLa Kyoto [2] (cell cycle stage: mitosis), 49.1 °C. In the data set on HeLa Kyoto [3], the “solubility change mitosis (log2)” value was -0.139. For the same sequence, the thermal stability score came to 0.418 in the data set with HeLa Kyoto [4] (setting [5]) and 1.15 in the data set on HeLa Kyoto [4] (cell cycle stage: mitosis).

Source of the values: the supplement of paper PMC5998384.
